± gives the standard deviation of the averaged measurements.
Tested on: ATP
Test: switch fluorescence ratio, 500 uM ATP over buffer (Cy3 cluster intensity, sum of 5 cycles each) (fold (ratio)); higher = stronger signal-on switching upon ATP binding; sequences stand for … in TCGTCGGCAGCGTCAGATGTGTATAAGAGACAGTTTTTTTTTTTTTTTTTTTTTTTTT…TC
Details: aptamer strand: ATP DNA aptamer (quencher-CACCTGGGGGAGTATTGCGGAGGAAGG + anchor), 100 nM annealed; ATP concentration: 500 uM
In short: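 Switching-strand clusters labelled with Cy3 on a modified Illumina MiSeq flow-cell were annealed to 100 nM quencher-labelled ATP aptamer, imaged in selection buffer, and re-imaged after 15 min with 500 uM ATP at 22 °C. This was done over five cycles with NaOH stripping and re-annealing in between. The fluorescence ratio is summed target-cycle over summed buffer-cycle Cy3 intensity per cluster, averaged per switch-domain sequence, excluding clusters outside 100-1000 RFU.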
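Further: ATP exposure 15 min at 22 °C before imaging.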

TTGGGGCAGC
switch fluorescence ratio: 0.995 ± 0.013

CGTGTAAGTA
switch fluorescence ratio: 1.011 ± 0.0044

TTTGCTAGGT
switch fluorescence ratio: 1.02 ± 0.031

TGATGGGTC
switch fluorescence ratio: 0.9961 ± 0.0054

GGACTTTAAG
switch fluorescence ratio: 0.952 ± 0.046

ATGTGGCCTA
switch fluorescence ratio: 0.986 ± 0.034

TTGTTTACCC
switch fluorescence ratio: 0.9713 ± 0.0036

AGGAAGCGGT
switch fluorescence ratio: 0.958 ± 0.051

ATGAAGGGGG
switch fluorescence ratio: 1.03 ± 0.042

GTGAAAAACT
switch fluorescence ratio: 1.03 ± 0.033

ATTCAGGCTT
switch fluorescence ratio: 1.029 ± 0.0019

CTTTACTCAC
switch fluorescence ratio: 1.27 ± 0.019

CGTTCATGCG
switch fluorescence ratio: 0.99 ± 0.032

TTACGTGTTA
switch fluorescence ratio: 0.995 ± 0.041

ACAGAATCGA
switch fluorescence ratio: 1.02 ± 0.032

AAGATTTTGG
switch fluorescence ratio: 0.979 ± 0.015

TTATTGATCC
switch fluorescence ratio: 0.9978 ± 0.0019

AAGACTCACG
switch fluorescence ratio: 1.05 ± 0.052

TAAGTTATGG
switch fluorescence ratio: 0.997 ± 0.02

GGTAAAGGCG
switch fluorescence ratio: 0.9621 ± 0.0048

AGTTAGTGGA
switch fluorescence ratio: 0.9924 ± 0.00044

GTGGATTGGC
switch fluorescence ratio: 0.982 ± 0.035

ACAATCGGCG
switch fluorescence ratio: 1.02 ± 0.0072

GAAGCGGTGG
switch fluorescence ratio: 0.954 ± 0.09

TAATGTGGTA
switch fluorescence ratio: 0.979 ± 0.056

ACCGGGCCCT
switch fluorescence ratio: 1.008 ± 0.0093

GGGCTCATTT
switch fluorescence ratio: 1.01 ± 0.021

TTACGGATAA
switch fluorescence ratio: 1.49 ± 0.67

TCTGCACATT
switch fluorescence ratio: 1.07 ± 0.025

GAGGTTGTCA
switch fluorescence ratio: 0.958 ± 0.038

GGTAGGAGTA
switch fluorescence ratio: 0.932 ± 0.051

TTTTAATACT
switch fluorescence ratio: 1.04 ± 0.066

ACGCCACATT
switch fluorescence ratio: 1.55 ± 0.091

GCGATAGCTC
switch fluorescence ratio: 0.973 ± 0.043

GGGTCGATTT
switch fluorescence ratio: 0.999 ± 0.01

GTGGGGCGTT
switch fluorescence ratio: 1 ± 0.035

GTTTTGTGGT
switch fluorescence ratio: 0.954 ± 0.021

AATGGGGGAG
switch fluorescence ratio: 0.981 ± 0.0099

AGGAATGCAA
switch fluorescence ratio: 1.09 ± 0.017

GCGAGGGAGG
switch fluorescence ratio: 1.02 ± 0.052

GCGGTCGGGC
switch fluorescence ratio: 0.9952 ± 0.0076

ACTTGGGGTG
switch fluorescence ratio: 1.04 ± 0.013

CATTTATCCT
switch fluorescence ratio: 1.07 ± 0.024

ACGTGGTCCA
switch fluorescence ratio: 0.985 ± 0.037

GATGTTCAGG
switch fluorescence ratio: 0.9875 ± 0.0011

CTAAATATGA
switch fluorescence ratio: 0.98 ± 0.035

GAGGGAAAAG
switch fluorescence ratio: 1.01 ± 0.032

GGATTTGGCG
switch fluorescence ratio: 0.985 ± 0.029

GATGTCGTGC
switch fluorescence ratio: 1.03 ± 0.031

CTGTCGACTT
switch fluorescence ratio: 0.986 ± 0.011

AGAGGTAGTA
switch fluorescence ratio: 1.017 ± 0.0066

CCGGGCGTGG
switch fluorescence ratio: 1.09 ± 0.025

GGGAGCACTA
switch fluorescence ratio: 1.09 ± 0.017

ATTATAGGGG
switch fluorescence ratio: 0.986 ± 0.0017

GCAGGAGGGA
switch fluorescence ratio: 1.01 ± 0.039

GGCAAAGGTA
switch fluorescence ratio: 0.968 ± 0.014

CGGCTCCCGC
switch fluorescence ratio: 1.046 ± 0.0084

ATCGAAACCC
switch fluorescence ratio: 1.05 ± 0.046

TCGGAGCTTA
switch fluorescence ratio: 2.977 ± 0.018

TTTAGGTAGA
switch fluorescence ratio: 1.02 ± 0.014

TCTGTAAGGG
switch fluorescence ratio: 0.9783 ± 0.0076

GCTGAGGGAA
switch fluorescence ratio: 1.01 ± 0.028

TTTTTTCTAT
switch fluorescence ratio: 0.996 ± 0.067

GAGGGAGGTG
switch fluorescence ratio: 1.02 ± 0.018

TTTCGTTAAC
switch fluorescence ratio: 1.06 ± 0.028

AAAGCATAAC
switch fluorescence ratio: 1.91 ± 0.14

GCAGCCTGCT
switch fluorescence ratio: 0.985 ± 0.032

CGTTTAAGCG
switch fluorescence ratio: 1.01 ± 0.038

GGGTTAGGGA
switch fluorescence ratio: 0.996 ± 0.025

TAGTCGGAGA
switch fluorescence ratio: 1.01 ± 0.019

TGAAAACACC
switch fluorescence ratio: 1.13 ± 0.15

TATTTGAATC
switch fluorescence ratio: 1.15 ± 0.24

TAAATCGGCG
switch fluorescence ratio: 0.989 ± 0.023

TGAAGGGCGT
switch fluorescence ratio: 0.9927 ± 0.0081

TTTTACGCTG
switch fluorescence ratio: 1 ± 0.036

ACGCCGGGGG
switch fluorescence ratio: 1.01 ± 0.031

AAGTGCGATC
switch fluorescence ratio: 1.04 ± 0.019

GTTGTTTTTA
switch fluorescence ratio: 0.987 ± 0.01

TGGGTTGTGT
switch fluorescence ratio: 0.988 ± 0.028

TACTACAGGG
switch fluorescence ratio: 1.11 ± 0.013

CTAGATGCTT
switch fluorescence ratio: 1.012 ± 0.0096

GAGGTAATC
switch fluorescence ratio: 1.02 ± 0.037

AGGTTCGGAG
switch fluorescence ratio: 1.04 ± 0.06

CAAATGGAAG
switch fluorescence ratio: 0.998 ± 0.028

GTAAAGGGGA
switch fluorescence ratio: 1.03 ± 0.044

TGATCGGGCA
switch fluorescence ratio: 0.956 ± 0.031

CCAATATTTA
switch fluorescence ratio: 0.994 ± 0.03

AGACGGTCAA
switch fluorescence ratio: 1.08 ± 0.032

GCAGTGGTAC
switch fluorescence ratio: 2.41 ± 0.086

GTGGTCGGGC
switch fluorescence ratio: 1 ± 0.022

GCACGGATGT
switch fluorescence ratio: 1.029 ± 0.0097

AGAGCTGGGT
switch fluorescence ratio: 1.02 ± 0.02

GTAGGTAGGT
switch fluorescence ratio: 0.99 ± 0.024

ATTATTGGGA
switch fluorescence ratio: 1 ± 0.046

ATTGATGATA
switch fluorescence ratio: 1.018 ± 0.0092

TTGGGTTTAC
switch fluorescence ratio: 1.02 ± 0.049

AAAATGGGTG
switch fluorescence ratio: 0.976 ± 0.015

CAGGGGGGTC
switch fluorescence ratio: 1.022 ± 0.0065

CAATTGTTCC
switch fluorescence ratio: 1.04 ± 0.021

TACTAAGGGG
switch fluorescence ratio: 1.04 ± 0.041

GGTTTTTTGT
switch fluorescence ratio: 0.992 ± 0.017

TTATTGGCGG
switch fluorescence ratio: 1.015 ± 0.0097

AGTCGGTTCG
switch fluorescence ratio: 0.986 ± 0.03

TGGAGCTGCA
switch fluorescence ratio: 1.04 ± 0.09

TTAATATTCT
switch fluorescence ratio: 0.969 ± 0.065

GGTCCTAGTC
switch fluorescence ratio: 0.946 ± 0.12

AATCATTCCG
switch fluorescence ratio: 1.07 ± 0.041

GGGGGCCGCC
switch fluorescence ratio: 0.988 ± 0.01

TGTCAAAAAC
switch fluorescence ratio: 1.28 ± 0.29

ATTCGCCACT
switch fluorescence ratio: 1.011 ± 0.0012

AATAGGTAG
switch fluorescence ratio: 0.976 ± 0.014

ATGTGGGTTT
switch fluorescence ratio: 0.974 ± 0.021

CTCAGGGGGG
switch fluorescence ratio: 1.02 ± 0.04

CTATGTGTCT
switch fluorescence ratio: 0.97 ± 0.043

TATAAGGGGG
switch fluorescence ratio: 0.982 ± 0.021

TTTTCACGGT
switch fluorescence ratio: 1.01 ± 0.021

GAAGATAGGG
switch fluorescence ratio: 0.998 ± 0.011

TGGCGGGTCG
switch fluorescence ratio: 1.06 ± 0.079

CGGGGAGTAT
switch fluorescence ratio: 0.975 ± 0.015

GTAGGTTTGA
switch fluorescence ratio: 0.994 ± 0.012

TGGGATATTC
switch fluorescence ratio: 0.9991 ± 0.0032

TTAGGATTCG
switch fluorescence ratio: 1.02 ± 0.039

GATCGGGGGG
switch fluorescence ratio: 0.983 ± 0.041

TCAACCAATG
switch fluorescence ratio: 1.04 ± 0.0039

TGGTATGCGT
switch fluorescence ratio: 1.02 ± 0.024

GGGAGGAAGA
switch fluorescence ratio: 1.01 ± 0.03

AGGTGGCATT
switch fluorescence ratio: 1.04 ± 0.015

TGGTTTTGTT
switch fluorescence ratio: 1.01 ± 0.058

CGGGGTCGTT
switch fluorescence ratio: 1 ± 0.024

GCTTCAATGT
switch fluorescence ratio: 1.03 ± 0.067

TATTTTTGTT
switch fluorescence ratio: 1.05 ± 0.074

ATTGATCTCC
switch fluorescence ratio: 1.03 ± 0.072

CCGGGTCTGG
switch fluorescence ratio: 0.992 ± 0.013

CAGTGTAGGG
switch fluorescence ratio: 1.017 ± 0.01

TGGTGAACGT
switch fluorescence ratio: 1 ± 0.053

GTGGATTGTG
switch fluorescence ratio: 0.971 ± 0.067

AGGCGAAACG
switch fluorescence ratio: 0.97 ± 0.065

ATTCTAGTCG
switch fluorescence ratio: 1.02 ± 0.086

GGGGGACACT
switch fluorescence ratio: 1.01 ± 0.022

CGGAGAGAGC
switch fluorescence ratio: 0.993 ± 0.011

GGGGTGTGCT
switch fluorescence ratio: 1.1 ± 0.16

AGGGATACTG
switch fluorescence ratio: 1.072 ± 0.0048

GATGGGTCTG
switch fluorescence ratio: 0.948 ± 0.014

AGCAGTGCGG
switch fluorescence ratio: 1.03 ± 0.024

TGAAGTATTT
switch fluorescence ratio: 1 ± 0.037

CATGGGGAAG
switch fluorescence ratio: 1.02 ± 0.011

AAGCCTATTG
switch fluorescence ratio: 0.961 ± 0.017

TTTGAATTTC
switch fluorescence ratio: 0.988 ± 0.021

AGGATAAATT
switch fluorescence ratio: 0.983 ± 0.025

CTGCGGGGAT
switch fluorescence ratio: 1.02 ± 0.027

CTATTATAGT
switch fluorescence ratio: 0.9844 ± 0.0034

GCCCATAGGA
switch fluorescence ratio: 0.978 ± 0.094

CTTGTTTCTC
switch fluorescence ratio: 0.971 ± 0.028

GAGGGTGTCA
switch fluorescence ratio: 0.995 ± 0.017

GAGTTTGTGT
switch fluorescence ratio: 0.996 ± 0.011

GCGTATAGGA
switch fluorescence ratio: 1.01 ± 0.035

ACCTAGGGAG
switch fluorescence ratio: 1.05 ± 0.02

CGCCTGACAC
switch fluorescence ratio: 1.26 ± 0.0035

GGGTATCTAT
switch fluorescence ratio: 1.012 ± 0.0067

CTCGTCACTC
switch fluorescence ratio: 1.232 ± 0.0097

AGGGGCAAGA
switch fluorescence ratio: 1.04 ± 0.032

CGCCAACAAC
switch fluorescence ratio: 1.78 ± 0.036

GTAAGTAAGA
switch fluorescence ratio: 1.03 ± 0.017

TATCTAAATC
switch fluorescence ratio: 0.9967 ± 0.0063

AGGTCGGCAT
switch fluorescence ratio: 0.997 ± 0.02

AATGGGACTT
switch fluorescence ratio: 1.02 ± 0.015

TGGGGGTATC
switch fluorescence ratio: 0.978 ± 0.024

GTAGCAACGG
switch fluorescence ratio: 1.59 ± 0.1

GCTCGTCGGC
switch fluorescence ratio: 0.9987 ± 0.0018

CAATTAACGG
switch fluorescence ratio: 1.04 ± 0.027

GTGGCAGGTG
switch fluorescence ratio: 2.53 ± 0.053

TTTAGGGATG
switch fluorescence ratio: 0.989 ± 0.0088

TTTTTTGATT
switch fluorescence ratio: 1.01 ± 0.02

TTAGTGACTA
switch fluorescence ratio: 1.01 ± 0.031

TCTAGCAGTT
switch fluorescence ratio: 1.048 ± 0.0014

TATAAGATGT
switch fluorescence ratio: 0.983 ± 0.025

CCACGAATT
switch fluorescence ratio: 1.012 ± 0.0096

TTGCAATTCG
switch fluorescence ratio: 3.05 ± 2.5

ATCGATTTTT
switch fluorescence ratio: 1 ± 0.032

ATGTGTAAAC
switch fluorescence ratio: 1.01 ± 0.038

TTAAAGGGC
switch fluorescence ratio: 0.973 ± 0.08

TTAAGACGGT
switch fluorescence ratio: 1.03 ± 0.031

GCTATGGTGC
switch fluorescence ratio: 1.026 ± 0.0038

CGTAGACTTG
switch fluorescence ratio: 0.9736 ± 0.005

TATCATAGCC
switch fluorescence ratio: 1.02 ± 0.027

CCATGTGACT
switch fluorescence ratio: 1.034 ± 0.0057

ATGAGTGCTT
switch fluorescence ratio: 0.9776 ± 0.0075

AAGGGGCCGA
switch fluorescence ratio: 0.994 ± 0.034

GTTGGGATGG
switch fluorescence ratio: 0.991 ± 0.015

GCGCTACGGG
switch fluorescence ratio: 1.01 ± 0.019

TCAAATGGGC
switch fluorescence ratio: 0.9965 ± 0.0031

TTGGAAAAT
switch fluorescence ratio: 0.967 ± 0.013

TAGACTTATG
switch fluorescence ratio: 1.04 ± 0.02

TACTTTGGGC
switch fluorescence ratio: 1.03 ± 0.065

TTTATGGCGG
switch fluorescence ratio: 1.01 ± 0.027

AATTAAGGCC
switch fluorescence ratio: 0.992 ± 0.026

GGGAATGGTC
switch fluorescence ratio: 1.01 ± 0.043

AGTTAAGAT
switch fluorescence ratio: 1.01 ± 0.022

TAGTTGTTTT
switch fluorescence ratio: 1 ± 0.04

GGGGGTGAAT
switch fluorescence ratio: 1 ± 0.037
